Results from US20260109776A1 (Amgen, published 2026).

What was measured:
human CD40 = human CD40 (human, UniProt P25942 21-193, limits assumed); assay: Octet
Description: (§1) The binding affinity of anti-human CD40 antibodies to human and cynomolgus monkey CD40 was measured by Octet assay (Table 3), quantifying association rate (Kon), disassociation rate (Kdis), and equilibrium binding constant (KD). Cross-reactivity of anti-CD40 antibodies to related TNF receptor superfamily (TNFRSF) members was evaluated by expressing human TNFR1, TNFR2, TNFR10, or TNFR14 on HEK293 cells by transient transfection of expression vectors encoding these genes. Binding of indicated anti-human CD40 antibody to these transfected cells was determined by flow cytometry. […] Cross-reactivity of anti-CD40 antibodies to cynomolgus monkey and mouse CD40 was evaluated by expressing cynomolgus monkey or mouse CD40 on HEK293 cells by transient transfection of expression vectors encoding these genes. Binding of indicated anti-human CD40 antibody to cells overexpressing cynomolgus monkey and mouse CD40 was determined by flow cytometry.

cynomolgus monkey CD40 = target: T1, cynomolgus monkey CD40 (cynomolgus monkey, UniProt P25942 21-193 (human entry), limits assumed); assay: Octet
T1 chain: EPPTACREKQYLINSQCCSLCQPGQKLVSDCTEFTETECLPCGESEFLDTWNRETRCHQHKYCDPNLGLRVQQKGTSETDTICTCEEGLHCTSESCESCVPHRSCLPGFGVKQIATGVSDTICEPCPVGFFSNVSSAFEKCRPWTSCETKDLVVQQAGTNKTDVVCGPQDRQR
Description: as §1

human CD40 on cells [1] = target: T2, human CD40 on cells (human, UniProt P25942 21-277); assay: cell-based or functional assay
T2 sequence (P25942 21-277 limits assumed): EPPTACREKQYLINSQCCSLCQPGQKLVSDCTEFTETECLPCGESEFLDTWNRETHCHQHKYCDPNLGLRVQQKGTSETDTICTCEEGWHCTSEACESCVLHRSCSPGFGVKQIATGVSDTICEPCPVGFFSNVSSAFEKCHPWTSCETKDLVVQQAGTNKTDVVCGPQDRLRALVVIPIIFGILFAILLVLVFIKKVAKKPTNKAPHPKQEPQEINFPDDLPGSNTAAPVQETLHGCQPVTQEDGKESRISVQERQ

mouse CD40 on cells = target: T3, mouse CD40 on cells (mouse, UniProt P27512 20-289); assay: flow cytometry, HEK293 transfectants
T3 construct: whole, on cells; also called mouse CD40 on HEK293 cells; CD40 on mouse B cells
T3 sequence (looked up): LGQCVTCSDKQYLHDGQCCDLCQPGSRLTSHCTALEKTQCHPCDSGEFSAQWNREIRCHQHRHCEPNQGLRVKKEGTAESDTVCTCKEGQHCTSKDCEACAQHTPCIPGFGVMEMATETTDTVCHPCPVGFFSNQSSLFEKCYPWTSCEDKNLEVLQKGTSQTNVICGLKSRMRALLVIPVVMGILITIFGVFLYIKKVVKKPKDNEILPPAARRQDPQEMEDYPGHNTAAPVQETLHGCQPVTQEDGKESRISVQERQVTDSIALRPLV

human TNFR2 = target: T4, human TNFR2 (human, UniProt P20333 23-461); assay: flow cytometry, HEK293 transfectants vs control cells
T4 construct: whole, on cells
T4 sequence (looked up): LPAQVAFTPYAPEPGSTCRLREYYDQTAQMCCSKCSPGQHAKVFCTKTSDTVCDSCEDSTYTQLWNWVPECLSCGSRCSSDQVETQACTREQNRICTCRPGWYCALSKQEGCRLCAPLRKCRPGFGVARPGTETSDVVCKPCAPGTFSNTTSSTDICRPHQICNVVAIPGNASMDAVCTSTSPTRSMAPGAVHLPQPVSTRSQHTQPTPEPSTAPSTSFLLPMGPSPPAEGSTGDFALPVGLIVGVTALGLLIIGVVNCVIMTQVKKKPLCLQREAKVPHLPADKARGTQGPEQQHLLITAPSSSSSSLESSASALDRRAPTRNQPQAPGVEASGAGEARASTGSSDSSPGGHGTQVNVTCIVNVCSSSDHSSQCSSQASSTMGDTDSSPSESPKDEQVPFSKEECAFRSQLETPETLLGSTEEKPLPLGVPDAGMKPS
Method in brief: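 Anti-human CD40 antibodies were tested by flow cytometry for binding to HEK293 cells transiently transfected with human TNFR1, TNFR2, TNFR10, TNFR14, or cynomolgus or mouse CD40. Affinity for human and cynomolgus CD40 was measured by Octet, giving Kon, Kdis and KD.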

human CD40 on cells [2] = target: T2, human CD40 on cells; assay: flow cytometry, labelled CD40L on CD40-293T cells, antibody at 10 ug/ml
Description: (§2) Percent ligand binding inhibition was calculated as [(CD40L binding gMFI in the absence of anti-CD40)−(CD40L binding gMFI in the presence of anti-CD40)]/(CD40L binding gMFI in the absence of anti-CD40). gMFI: geometric mean fluorescent intensity. All anti-CD40 antibodies show minimal effects on the ability of CD40L to bind to the CD40 receptor (Table 7).

human CD40 on cells [3] = target: T2, human CD40 on cells; assay: flow cytometry, labelled CD40L on CD40-293T cells, antibody at 20 ug/ml
Description: as §2

human CD40 on cells [4] = target: T2, human CD40 on cells; assay: flow cytometry, labelled CD40L on CD40-293T cells, antibody at 2.5 ug/ml
Description: as §2

Chain of human CD40 (P25942 21-193 limits assumed): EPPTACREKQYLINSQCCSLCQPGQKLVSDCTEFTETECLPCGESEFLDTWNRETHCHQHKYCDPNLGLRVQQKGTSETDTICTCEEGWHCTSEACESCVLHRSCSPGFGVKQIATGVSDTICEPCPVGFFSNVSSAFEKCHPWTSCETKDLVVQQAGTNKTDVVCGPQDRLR

Kd (human CD40): 0.69 nM | koff (human CD40): 0.000368 s⁻¹ | kon (human CD40): 533000 M⁻¹ s⁻¹ | Kd (cynomolgus monkey CD40): 0.56 nM | koff (cynomolgus monkey CD40): 0.000306 s⁻¹ | kon (cynomolgus monkey CD40): 544000 M⁻¹ s⁻¹ | human B cell proliferation, no crosslinking, % Max Activity (human CD40 on cells [1]): 8.6% | human B cell proliferation, no crosslinking, EC50 (human CD40 on cells [1]): > 16.7 nM | human B cell proliferation, with protein G crosslinking, % Max Activity (human CD40 on cells [1]): 89.1% | human B cell proliferation, with protein G crosslinking, EC50 (human CD40 on cells [1]): 0.4 nM | binding result (mouse CD40 on cells): no binding | fold over control (gMFI) (human TNFR2): 0.89 fold | Ligand Binding Inhibition (%) (human CD40 on cells [2]): -8% | Ligand Binding Inhibition (%) (human CD40 on cells [3]): -3% | Ligand Binding Inhibition (%) (human CD40 on cells [4]): -16%
B1: 30A12 (antibody, IgG4, V domains shown)
VH: EVQLLESGGGLVQPGGSLRLSCAASGFTFSRNAMSWVRQAPGKGLEWVSATGGSGISTYYADSVKGRFTISRDNSKNTLYLQMNSLRAEDTAVYYCARGYSNSWWYFDYWGQGTLVTVSS
VL: QSALTQPASVSGSPGQSITISCTGTSSDVGNYNLVSWYQQHPGKAPKLMIFEVNQRPSGVSNRFSGSKSGTTASLTISGLQAADEADYFCCSYTTSSTYVIFGGGTKLTVLG
notes: also called 4878-1
